# According to US20190322765A1 (Hoffmann-La Roche, published 2019):
# Where “and” joins values, the source holds several entries; their conditions need not be identical. Equal values may be shown once.
# B1: human IL-2R α-subunit, monomeric, with AcTev cleavage site and Avi His tag (receptor)
# chain: ELCDDDPPEIPHATFKAMAYKEGTMLNCECKRGFRRIKSGSLYMLCTGNSSHSSWDNQCQCTSSATRNTTKQVTPQPEEQKERKTTEMQSPMQPVDQASLPGHCREPPPWENEATERIYHFVVGQMVYYQCVQGYRALHRGPAESVCKMTHGKTRWTQPQLICTGVDEQLYFQGGSGLNDIFEAQKIEWHEARAHHHHHH
# notes: also called Hu IL-2R α; CD25
# How the values were obtained:
# human FAP-His [1] = target: T1, human FAP-His (human, UniProt Q12884 27-760); experiment: SPR, FAP-His captured via anti-His, Fab analyte, 1:1 fit, 25°C
# T1 construct: also called Hu FAP; His-tagged human FAP; not shown: His tag
# cynomolgus FAP-His [2] = target: cynomolgus FAP-His (cynomolgus); experiment: as above
# Experimental: The FAP binding activity of the cleaved Fab fragments used in these examples as antigen binding, moieties was determined by surface plasmon resonance (SPR) on a Biacore machine. […] Temperature was 25° C. and HBS-EP was used as buffer. […] Fitting was performed based on a 1:1 binding model, RI=0, Rmax=local (because of capture format).
# murine FAP-His = target: T2, murine FAP-His (murine, UniProt P97321 27-761); experiment: as above
# T2 construct: not shown: His tag
# human FAP-His [3] = target: T1, human FAP-His; experiment: SPR, His-tagged human FAP captured via anti-His, apparent bivalent affinity (avidity), 25°C
# Experimental: Temperature was 25° C. and HBS-EP was used as buffer. Analyte concentration was 50 nM down to 0.05 nM at a flow rate of 50 μl/min (association: 300 s, dissociation: 900 s, regeneration: 60 s, with 10 mM glycine pH 2). Fitting was performed based on a 1:1 binding model, RI=0, Rmax=local (because of capture format).
# human FAP-His [4] = target: T1, human FAP-His; experiment: SPR, FAP-His captured via anti-His, Fab analyte, steady state, 25°C
# cynomolgus FAP-His [5] = target: cynomolgus FAP-His (cynomolgus); experiment: as above
# [6] = target: T3, Proleukin (Novartis/Chiron), commercially available wild-type IL-2 (UniProt P60568 22-153); experiment: SPR, receptor on CM5, IL-2 analyte, 25°C, kinetic
# T3 sequence (P60568 other isoform, or with tags, fused parts or gaps limits assumed, form in doubt): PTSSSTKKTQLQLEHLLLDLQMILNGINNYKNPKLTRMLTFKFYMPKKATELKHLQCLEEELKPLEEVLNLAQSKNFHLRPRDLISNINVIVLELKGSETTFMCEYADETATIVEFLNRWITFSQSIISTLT
# Experimental: (§1) Subsequently, affinity for the IL-2R βγ heterodimer and the IL-2R α-subunit were determined by surface plasmon resonance (SPR). Briefly, the ligand—either human IL-2R α-subunit (Fc2) or human IL2-R β knob γ hole heterodimer (Fc3)—was immobilized on a CM5 chip. […] Flow rate was 30 l/min and the following conditions were applied for association: 180s, dissociation: 300 s, and regeneration: 2×30 s 3M MgCl₂ for IL2-R β knob γ hole heterodimer, 10 s 50 mM NaOH for IL-2R α-subunit.
# [7] = target: T3, Proleukin (Novartis/Chiron), …; experiment: SPR, receptor on CM5, IL-2 analyte, 25°C, steady state
# Experimental: as §1
# [8] = target: B1; experiment: SPR, receptor on CM5, kinetic
# [9] = target: T4, human IL-2R βγ heterodimer, subunit-Fc knobs-into-holes fusion (human); experiment: SPR, receptor on CM5, IL-2 analyte, 25°C, kinetic
# T4 construct: The entries may hold a leader peptide; also called Hu IL-2R βγ; human IL2-R β knob γ hole heterodimer
# Experimental: as §1
# [10] = target: T5, human FAP expressed on stably transfected HEK293 cells (human, UniProt Q12884 1-760); experiment: FACS on HEK 293-human FAP cells, median fluorescence against concentration
# T5 construct: whole, on cells
# Experimental: Briefly, 250 000 cells per well were incubated with the indicated concentration of the immunoconjugates in a round-bottom 96-well plate, incubated for 30 min at 4° C., and washed once with PBS/0.1% BSA.
# [11] = target: T6, human DPPIV on transfected HEK 293 cells (human, UniProt P27487 1-766); experiment: FACS on HEK 293-human DPPIV cells, with HEK mock-transfected cells, cells only and sec. antibody as controls; concentration not shown
# T6 construct: whole, on cells; also called CD26
# [12] = target: FAP on GM05389 fibroblasts; experiment: FACS on GM05389 fibroblasts, surface-bound construct detected with secondary antibody after the times shown (internalization analysis); concentration not shown
Binder,Kd (human FAP-His [1]),Kd (cynomolgus FAP-His [2]),Kd (murine FAP-His),other results
"4B9 Fab (Fab, V domains shown) VH: EVQLLESGGGLVQPGGSLRLSCAASGFTFSSYAMSWVRQAPGKGLEWVSAIIGSGASTYYADSVKGRFTISRDNSKNTLYLQMNSLRAEDTAVYYCAKGWFGGFNYWGQGTLVTVSS VL: EIVLTQSPGTLSLSPGERATLSCRASQSVTSSYLAWYQQKPGQAPRLLINVGSRRATGIPDRFSGSGSGTDFTLTISRLEPEDFAVYYCQQGIMLPPTFGQGTKVEIK",0.3 nM and 0.31 nM,0.23 nM and 0.24 nM,5 nM and 5.2 nM,
"14B3 Fab (Fab, V domains shown, Cleaved Fab fragment) VH: EVQLLESGGGLVQPGGSLRLSCAASGFTFSSYAMSWVRQAPGKGLEWVSAILASGAITYYADSVKGRFTISRDNSKNTLYLQMNSLRAEDTAVYYCAKGWFGGFNYWGQGTLVTVSS VL: EIVLTQSPGTLSLSPGERATLSCRASQSVTSSYLAWYQQKPGQAPRLLINVGSRRATGIPDRFSGSGSGTDFTLTISRLEPEDFAVYYCQQGIMLPPTFGQGTKVEIKR",0.47 nM,0.59 nM and 0.61 nM,4.7 nM,
"28H1 IgG (antibody, V domains shown, also called unmodified 28H1 IgG antibody) VH: EVQLLESGGGLVQPGGSLRLSCAASGFTFSSHAMSWVRQAPGKGLEWVSAIWASGEQYYADSVKGRFTISRDNSKNTLYLQMNSLRAEDTAVYYCAKGWLGNFDYWGQGTLVTVSS VL: EIVLTQSPGTLSLSPGERATLSCRASQSVSRSYLAWYQQKPGQAPRLLIIGASTRATGIPDRFSGSGSGTDFTLTISRLEPEDFAVYYCQQGQVIPPTFGQGTKVEIK",,,,Kd (human FAP-His [3]): 0.2 nM
"4G8 IgG (antibody, V domains shown) VH: not shown VL: EIVLTQSPGTLSLSPGERATLSCRASQSVSRSYLAWYQQKPGQAPRLLIIGASTRATGIPDRFSGSGSGTDFTLTISRLEPEDFAVYYCQQGQVIPPTFGQGTKVEIK",,,,Kd (human FAP-His [3]): 0.05 nM
"29B11 Fab (Fab, V domains shown, Cleaved Fab fragment) VH: EVQLLESGGGLVQPGGSLRLSCAASGFTFSSYAMSWVRQAPGKGLEWVSAIIGSGGITYYADSVKGRFTISRDNSKNTLYLQMNSLRAEDTAVYYCAKGWFGGFNYWGQGTLVTVSS VL: EIVLTQSPGTLSLSPGERATLSCRASQSVTSSYLAWYQQKPGQAPRLLINVGSRRATGIPDRFSGSGSGTDFTLTISRLEPEDFAVYYCQQGIMLPPTFGQGTKVEIKR",0.19 nM,0.21 nM and 0.2 nM,1.3 nM and 1.2 nM,
"3F2 Fab (Fab, V domains shown) VH: not shown VL: EIVLTQSPGTLSLSPGERATLSCRASQSVTSSYLAWYQQKPGQAPRLLINVGSRRATGIPDRFSGSGSGTDFTLTISRLEPEDFAVYYCQQGIMLPPTFGQGTKVEIKR",6 nM,4.7 nM and 5.3 nM,8.9 nM and 9.5 nM,
"28H1 Fab (Fab, V domains shown, Cleaved Fab fragment) VH: EVQLLESGGGLVQPGGSLRLSCAASGFTFSSHAMSWVRQAPGKGLEWVSAIWASGEQYYADSVKGRFTISRDNSKNTLYLQMNSLRAEDTAVYYCAKGWLGNFDYWGQGTLVTVSS VL: EIVLTQSPGTLSLSPGERATLSCRASQSVSRSYLAWYQQKPGQAPRLLIIGASTRATGIPDRFSGSGSGTDFTLTISRLEPEDFAVYYCQQGQVIPPTFGQGTKVEIKR",2.6 nM,,0.13 nM and 0.18 nM,
"4G8 Fab (Fab, V domains shown) VH: not shown VL: EIVLTQSPGTLSLSPGERATLSCRASQSVSRSYLAWYQQKPGQAPRLLIIGASTRATGIPDRFSGSGSGTDFTLTISRLEPEDFAVYYCQQGQVIPPTFGQGTKVEIKR",53 nM and 51 nM,33 nM and 35 nM,0.07 nM,Kd (human FAP-His [4]): 48 nM; Kd (cynomolgus FAP-His [5]): 33 nM and 34 nM
B1,,,,Kd [6]: 7.5 nM and 12.5 nM; Kd [7]: 19 nM and 17.8 nM
"Naked IL-2 qm (quadruple mutant T3A/F42A/Y45A/L72G, His-tagged) (ligand, also called naked IL-2 quadruple mutant; quadruple mutant IL-2) APASSSTKKTQLQLEHLLLDLQMILNGINNYKNPKLTRMLTAKFAMPKKATELKHLQCLEEELKPLEEVLNGAQSKNFHLRPRDLISNINVIVLELKGSETTFMCEYADETATIVEFLNRWITFAQSIISTLTVDHHHHHH",,,,binding result [8]: no binding (tested: 300 nM); Kd [9]: 2.7 nM and 2 nM
"4B9 Fab-IL-2 qm-Fab (other, Fab-IL-2-Fab immunoconjugate against FAP with quadruple mutant IL-2) EVQLLESGGGLVQPGGSLRLSCAASGFTFSSYAMSWVRQAPGKGLEWVSAIIGSGASTYYADSVKGRFTISRDNSKNTLYLQMNSLRAEDTAVYYCAKGWFGGFNYWGQGTLVTVSSASTKGPSVFPLAPSSKSTSGGTAALGCLVKDYFPEPVTVSWNSGALTSGVHTFPAVLQSSGLYSLSSVVTVPSSSLGTQTYICNVNHKPSNTKVDKKVEPKSCDSGGGGSGGGGSGGGGAPASSSTKKTQLQLEHLLLDLQMILNGINNYKNPKLTRMLTAKFAMPKKATELKHLQCLEEELKPLEEVLNGAQSKNFHLRPRDLISNINVIVLELKGSETTFMCEYADETATIVEFLNRWITFAQSIISTLTSGGGGSGGGGSGGGGEVQLLESGGGLVQPGGSLRLSCAASGFTFSSYAMSWVRQAPGKGLEWVSAIIGSGASTYYADSVKGRFTISRDNSKNTLYLQMNSLRAEDTAVYYCAKGWFGGFNYWGQGTLVTVSSASTKGPSVFPLAPSSKSTSGGTAALGCLVKDYFPEPVTVSWNSGALTSGVHTFPAVLQSSGLYSLSSVVTVPSSSLGTQTYICNVNHKPSNTKVDKKVEPKSCD light: EIVLTQSPGTLSLSPGERATLSCRASQSVTSSYLAWYQQKPGQAPRLLINVGSRRATGIPDRFSGSGSGTDFTLTISRLEPEDFAVYYCQQGIMLPPTFGQGTKVEIKRTVAAPSVFIFPPSDEQLKSGTASVVCLLNNFYPREAKVQWKVDNALQSGNSQESVTEQDSKDSTYSLSSTLTLSKADYEKHKVYACEVTHQGLSSPVTKSFNRGEC",,,,binding result [10]: binds; binding result [11]: no binding; binding result [12]: binds
"14B3 Fab-IL-2 qm-Fab (other, Fab-IL-2-Fab immunoconjugate against FAP with quadruple mutant IL-2) EVQLLESGGGLVQPGGSLRLSCAASGFTFSSYAMSWVRQAPGKGLEWVSAILASGAITYYADSVKGRFTISRDNSKNTLYLQMNSLRAEDTAVYYCAKGWFGGFNYWGQGTLVTVSSASTKGPSVFPLAPSSKSTSGGTAALGCLVKDYFPEPVTVSWNSGALTSGVHTFPAVLQSSGLYSLSSVVTVPSSSLGTQTYICNVNHKPSNTKVDKKVEPKSCDSGGGGSGGGGSGGGGAPASSSTKKTQLQLEHLLLDLQMILNGINNYKNPKLTRMLTAKFAMPKKATELKHLQCLEEELKPLEEVLNGAQSKNFHLRPRDLISNINVIVLELKGSETTFMCEYADETATIVEFLNRWITFAQSIISTLTSGGGGSGGGGSGGGGEVQLLESGGGLVQPGGSLRLSCAASGFTFSSYAMSWVRQAPGKGLEWVSAILASGAITYYADSVKGRFTISRDNSKNTLYLQMNSLRAEDTAVYYCAKGWFGGFNYWGQGTLVTVSSASTKGPSVFPLAPSSKSTSGGTAALGCLVKDYFPEPVTVSWNSGALTSGVHTFPAVLQSSGLYSLSSVVTVPSSSLGTQTYICNVNHKPSNTKVDKKVEPKSCD light: EIVLTQSPGTLSLSPGERATLSCRASQSVTSSYLAWYQQKPGQAPRLLINVGSRRATGIPDRFSGSGSGTDFTLTISRLEPEDFAVYYCQQGIMLPPTFGQGTKVEIKRTVAAPSVFIFPPSDEQLKSGTASVVCLLNNFYPREAKVQWKVDNALQSGNSQESVTEQDSKDSTYSLSSTLTLSKADYEKHKVYACEVTHQGLSSPVTKSFNRGEC",,,,EC50 (read off the curve) [10]: ~20 nM; binding result [11]: no binding; binding result [12]: binds
